What was measured:
[1] = molecular target: SARS-CoV-2 spike RBD wild type (SARS-CoV-2, UniProt P0DTC2 SEQ:1-219); test: flow
[2] = molecular target: Bovine serum albumin (Bos taurus, UniProt P02769 P02769:25-607); test: flow; conditions: tags: Sigma-Aldrich; bead-immobilised
Chain of Bovine serum albumin (P02769 25-607, one chain of several): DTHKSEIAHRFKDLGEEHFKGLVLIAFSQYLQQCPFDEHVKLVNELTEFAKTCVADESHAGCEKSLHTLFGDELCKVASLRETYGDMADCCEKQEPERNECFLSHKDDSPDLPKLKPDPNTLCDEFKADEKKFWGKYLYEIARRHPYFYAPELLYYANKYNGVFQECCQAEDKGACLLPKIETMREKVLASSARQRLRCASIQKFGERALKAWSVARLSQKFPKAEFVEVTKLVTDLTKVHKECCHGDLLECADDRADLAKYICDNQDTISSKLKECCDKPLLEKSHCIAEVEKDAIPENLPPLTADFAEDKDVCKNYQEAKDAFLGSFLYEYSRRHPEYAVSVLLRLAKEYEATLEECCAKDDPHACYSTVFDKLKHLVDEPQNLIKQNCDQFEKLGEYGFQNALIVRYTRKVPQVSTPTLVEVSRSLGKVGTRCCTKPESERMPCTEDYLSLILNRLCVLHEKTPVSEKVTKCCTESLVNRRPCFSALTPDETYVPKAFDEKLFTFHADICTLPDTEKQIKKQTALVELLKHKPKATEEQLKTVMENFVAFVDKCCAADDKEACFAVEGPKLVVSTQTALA

Row | Binder | binding result [1] | binding result [2]
1 | CoV2-RBD-1C (printed as CoV2-RBD-QC in Table 1) (ssDNA) DNA: CAGCACCGACCTTGTGCTTTGGGAGTGCTGGTCCAAGGGCGTTAATGGACA | binds | 
2 | TCGAGTGGCTTGTTTGTAATGTAGGGTTCCGGTCGTGGGT (ssDNA) [Aptamer-1 core] | binds | 
3 | CGCAGCACCCAAGAACAAGGACTGCTTAGGATTGCGATAGGTTCGG (ssDNA) [CoV2-6C3] | binds | 
4 | R7-02 hybrid (LGKGDFR peptide-DNA) (ssDNA, 5'-hexynyl clicked to C-terminal azide-lysine tagged LGKGDFR peptide) DNA: GGAAGAGATGGCGACACGCAATCGTGGGTTGGGGATATAATGGTAAGCTGATCCTGATGG |  | no binding
